Test results from US20070066551.

Columns and labels:
[1] = biological target: IL-23 (full length) (Homo sapiens) (UniProt Q9NPF7+P29460); assay: filter; details: dRmY, DPBS with Ca/Mg, BSA, RT
[2] = tested on: IgE (Homo sapiens), P01854-1; assay: filter; details: DPBS with Ca/Mg, BSA
Chain of IgE (Homo sapiens), P01854-1 (P01854 other isoform, or with tags, fused parts or gaps): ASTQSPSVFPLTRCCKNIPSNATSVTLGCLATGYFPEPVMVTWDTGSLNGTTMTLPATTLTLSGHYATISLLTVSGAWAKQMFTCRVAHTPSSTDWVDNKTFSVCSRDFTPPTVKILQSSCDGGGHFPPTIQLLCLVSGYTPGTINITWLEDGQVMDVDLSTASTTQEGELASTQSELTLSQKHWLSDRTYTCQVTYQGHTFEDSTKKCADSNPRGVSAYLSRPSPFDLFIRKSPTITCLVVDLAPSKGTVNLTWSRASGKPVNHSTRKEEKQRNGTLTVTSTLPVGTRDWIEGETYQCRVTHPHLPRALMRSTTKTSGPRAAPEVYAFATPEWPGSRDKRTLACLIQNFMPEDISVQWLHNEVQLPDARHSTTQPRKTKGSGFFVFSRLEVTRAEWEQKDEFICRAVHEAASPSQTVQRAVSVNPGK

Chain of IL-23 (full length) (Homo sapiens) (Q9NPF7 20-189, chain 1 of 2): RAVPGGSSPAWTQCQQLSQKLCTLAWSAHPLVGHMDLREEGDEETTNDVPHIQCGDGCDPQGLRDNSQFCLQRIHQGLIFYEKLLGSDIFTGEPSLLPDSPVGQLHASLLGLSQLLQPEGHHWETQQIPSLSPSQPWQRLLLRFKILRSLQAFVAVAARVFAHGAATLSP
Chain of IL-23 (full length) (Homo sapiens) (P29460 23-328, chain 2 of 2): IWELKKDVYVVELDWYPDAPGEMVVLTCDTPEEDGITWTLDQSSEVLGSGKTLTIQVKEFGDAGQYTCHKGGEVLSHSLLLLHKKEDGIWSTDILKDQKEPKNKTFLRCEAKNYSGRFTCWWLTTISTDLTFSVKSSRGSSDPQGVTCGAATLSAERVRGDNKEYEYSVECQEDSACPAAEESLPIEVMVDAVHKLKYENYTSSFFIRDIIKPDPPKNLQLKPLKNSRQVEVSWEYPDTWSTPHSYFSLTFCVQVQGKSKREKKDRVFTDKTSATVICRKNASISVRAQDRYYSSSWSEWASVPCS

ACAGGCAAGUAANUGGGGAGUGCGGGCGGGGUGU [ARC1683]
Kd ([1]; 2'-OMe inosine for 2nd mU, 3'-idT (last t of SEQ), parent 9.8 nM): 4.8 nM

ACAGGCAAGUAAUUGGGGAGUGCGGGCGGGGUGN [ARC1702]
Kd ([1]; 2'-OMe inosine for last mU, 3'-idT (last t of SEQ), parent 15 nM): 10 nM

ACAGGCAAGUAAUUGGGGAGUGCGGGCGGGGUGU [ARC1648]
Kd ([1]; dI at 1st dA (position 1) [1], parent 13 nM): 12 nM

ACAGGCAAGUAAUUGGGGAGUGCGGGCGGGGUGU [ARC1650]
Kd ([1]; dI at 3rd dA (position 7) [7], parent 13 nM): 34 nM

ACAGGCAAGUAAUUGGGGAGUGCGGGCGGGGUGU [ARC1653]
Kd ([1]; dI at 6th dA (position 12) [12], parent 13 nM): 25 nM

AGCCUGGGGACCCAUGGGGGGCU [ARC445]
Kd ([2]; 2'-deoxy purines, 2'-OMe pyrimidines (dRmY), RT, other runs 12.6 nM (Table 10), with ssDNA and tRNA 14.6 (Table 8), 20 (Table 12), 8.5, 27 and 13 (Table 13)): 3 nM

AGCCUGGGGACCCAUGGGGGGCU [ARC584]
Kd ([2]; dRmY, PS between 16 and 17, RT, parent 12.6 nM): 6.9 nM

AGCCUGGGGACCCAUGGGGGGCU [ARC588]
Kd ([2]; dRmY, PS between 20 and 21, RT, parent 12.6 nM): 5.3 nM

AGCCUGGGGACCCAUGGGGGGCU [ARC597]
Kd ([2]; dRmY, 2'-deoxy-5mC at 3, ssDNA, tRNA, parent 20 nM, other run 16 nM (Table 13, parent 8.5 nM)): 21.5 nM

AGCCUGGGGACCCAUGGGGGGCU [ARC599]
Kd ([2]; dRmY, 2'-deoxy-5mC at 11, ssDNA, tRNA, parent 20 nM, other run 10.4 nM (Table 13, parent 8.5 nM)): 20.5 nM

AGCCUGGGGACCCAUGGGGGGCU [ARC602]
Kd ([2]; dRmY, 2'-deoxy-5mC at 22, ssDNA, tRNA, parent 20 nM, other run 9 nM (Table 13, parent 8.5 nM)): 26 nM

AGCCUGGGGACCCAUGGGGGGCU [ARC608]
Kd ([2]; dRmY, dC in place of sixth mC (position 22, per description; printed sequence shows mC), ssDNA, tRNA, RT, parent 14.6 nM): 7.9 nM

AGCCUGGGGACCCAUGGGGGGCU [ARC702]
Kd ([2]; dRmY, PS between 16 and 17, 20 and 21, RT, parent 12.6 nM): 2.6 nM

AGCCUGGGGACCCAUGGGGGGCU [ARC751]
Kd ([2]; dRmY, 2'-deoxy-5mC at 3 and 22, ssDNA, tRNA, parent 20 nM): 15 nM

AGCCUGGGGACCCAUGGGGGGCU [ARC753]
Kd ([2]; dRmY, 2'-deoxy-5mC at 11 and 22, ssDNA, tRNA, parent 20 nM): 15 nM

AGCCUGGGGACCCAUGGGGGGCU [ARC756]
Kd ([2]; dRmY, 2'-deoxy-5mC at 3, 11 and 22, ssDNA, tRNA, parent 20 nM): 14 nM

AGCCUGGGGACCCAUGGGGGGCU [ARC767]
Kd ([2]; dRmY, PS between 12 and 13, 16 and 17, 20 and 21, RT, parent 12.6 nM): 2.7 nM

AGCCUGGGGACCCAUGGGGGGCU [ARC768]
Kd ([2]; dRmY, PS between 13 and 14, 16 and 17, 20 and 21, RT, parent 12.6 nM): 3.5 nM

AGCCUGGGGACCCAUGGGGGGCU [ARC914]
Kd ([2]; dRmY, 2'-deoxy-5mC at 3, dC at 22, ssDNA, tRNA, parent 27 nM): 11.9 nM

AGCCUGGGGACCCAUGGGGGGCU [ARC915]
Kd ([2]; dRmY, 2'-deoxy-5mC at 11, dC at 22, ssDNA, tRNA, parent 27 nM): 16.9 nM

AGCCUGGGGACCCAUGGGGGGCU [ARC916]
Kd ([2]; dRmY, 2'-deoxy-5mC at 3, dC at 12, ssDNA, tRNA, parent 27 nM): 13.7 nM

AGCCUGGGGACCCAUGGGGGGCU [ARC918]
Kd ([2]; dRmY, 2'-deoxy-5mC at 22, dC at 12, ssDNA, tRNA, parent 27 nM): 14.6 nM

AGCCUGGGGACCCAUGGGGGGCU [ARC920]
Kd ([2]; dRmY, 2'-deoxy-5mC at 3 and 22, dC at 12, ssDNA, tRNA, parent 27 nM): 12.8 nM

AGCCUGGGGACCCAUGGGGGGCU [ARC921]
Kd ([2]; dRmY, 2'-deoxy-5mC at 11 and 22, dC at 12, ssDNA, tRNA, parent 13 nM): 8.5 nM

AGCCUGGGGACCCAUGGGGGGCU [ARC925]
Kd ([2]; dRmY, 2'-deoxy-5mC at 3, dC at 12 and 22, ssDNA, tRNA, parent 13 nM): 8.1 nM

AGCCUGGGGACCCAUGGGGGGCU [ARC926]
Kd ([2]; dRmY, 2'-deoxy-5mC at 11, dC at 12 and 22, ssDNA, tRNA, parent 13 nM): 5.5 nM

AGCCUGGGGACCCAUGGGGGGCU [ARC1335]
Kd ([2]; ARC445 with 2'-OMe purines at 1, 2, 7, 10, 14, 17, other purines 2'-deoxy, 2'-OMe pyrimidines, 3'-idT (last t of SEQ), RT, other runs 15 nM (Table 9), 2.8 nM (Table 11)): 0.3 nM

AGCCUGGGGACCCAUGGGGGGCU [ARC1548]
Kd ([2]; as ARC1335 with dI at 2, 3'-idT [dI at 2 (parent base G), other modifications as ARC1335, 3'-idT], RT): 3.3 nM

AGCCUGGGGACCCAUGGGGGGCU [ARC1562]
Kd ([2]; as ARC1335 with dI at 16, 3'-idT [16], RT): 0.6 nM

AGCCUGGGGACCCAUGGGGGGCU [ARC1563]
Kd ([2]; as ARC1335 with dI at 17, 3'-idT [17], RT): 2.2 nM

AGCCUGGGGACCCAUGGGGGGCU [ARC1564]
Kd ([2]; as ARC1335 with dI at 18, 3'-idT [18], RT): 0.5 nM

AGCCUGGGGACCCAUGGGGGGCU [ARC1565]
Kd ([2]; as ARC1335 with dI at 19, 3'-idT [19], RT): 1.4 nM

AGCCUGGGGACCCAUGGGGGGCU [ARC1566]
Kd ([2]; as ARC1335 with dI at 20, 3'-idT [20], RT, other run 8 nM (Table 9, parent ARC1335 15 nM)): 0.1 nM

AGCCUGGGGACCCNUGGGGGGCU [ARC1560]
Kd ([2]; as ARC1335 with dI at 14, 3'-idT, RT, parent ARC1335 15 nM): 3 nM

AGCCUGGGGACCCNUGGGGNGCU [ARC1647]
Kd ([2]; as ARC1335 with dI at 14 and 20, 3'-idT, RT, parent ARC1335 15 nM): 1 nM

AGCCUGGGGACCCRUGGGGGGCU [ARC2047]
Kd ([2]; as ARC1335 with 2'-OMe-2-aminopurine at 14, 3'-idT, RT, parent 2.8 nM): 4.8 nM

AGCCUGGRGACCCAUGGGGGGCU [ARC2044]
Kd ([2]; as ARC1335 with 2'-deoxy-2-aminopurine at 8, 3'-idT, RT, parent 2.8 nM): 3.9 nM

AGCCUGGRGACCCRUGGGGGGCU [ARC2360]
Kd ([2]; as ARC1335 with 2'-deoxy-2-aminopurine at 8 and 2'-OMe-2-aminopurine at 14, 3'-idT, RT, parent 2.8 nM): 2.7 nM

RGCCUGGGGACCCAUGGGGGGCU [ARC2040]
Kd ([2]; as ARC1335 with 2'-OMe-2-aminopurine at 1, 3'-idT, RT, parent 2.8 nM): 18.7 nM

RGCCUGGRGACCCRUGGGGGGCU [ARC2361]
Kd ([2]; as ARC1335 with 2'-OMe-2-aminopurine at 1 and 14 and 2'-deoxy-2-aminopurine at 8, 3'-idT, RT, parent 2.8 nM): 0.8 nM
